Test results: the supplement of paper PMC10567573

B1: STX5 (parent)
chain: ESTIVELGSIFQQLAHMVKEQEET
B2: FAM116A (parent)
chain: TVHEVDIFRCFCPVFLHSQMLWEL

Variants of: B1
Assay: protein stability index of a GFP-peptide fusion (GPS, HEK-293T) (PSI 1-6); higher = more stable
Settings: c terminus: a fixed tail appended
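Further: lentivirally expressed fusions sorted by FACS into six bins by GFP to DsRed ratio, PSI derived from sequencing read proportions per bin multiplied by bin number.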

Variant	protein stability index
L7F	3.03
Q21C	1.91
G8Y	3.89
G8D	2.28
H16A	2.13
E23P	2.06
F11K	4.85
F11P	4.65
I4F	2.29
I4N	3.05
V5Y	2.28
V5R	2.88
V5W	2.22
V18S	4.14
V18H	3.73
V18A	3.27
S2T	2.05
I10Y	3.49
I10A	4.32
I10M	2.6
I10T	4.49
Q12T	1.93

Variant	protein stability index
L14C	4.42
Q13M	1.98
Q13V	2.16
E1H	1.27
E1D	2.77
E1L	2.6
E1F	2.08
K19Q	2.32
K19D	4.35
T24S	2
T3S	2.72
T3D	2.04
T3Q	3.88
A15G	3.91
E6Q	2.33
E6C	2.06
E22C	2.4
E22L	5.42
E22G	1.06
E22K	2
E22F	2.88

Variants of: B2
Assay: as above
Settings: c terminus: a fixed tail appended

Variant	protein stability index
D6A	4.47
D6W	3.69
D6I	2.2
D6P	1.7
D6H	2.23
D6Q	2.07
D6K	2.61
D6Y	2.19
D6N	3.02
F8P	2.36
F8C	2.96
F8A	2.53
F8M	3.18
F8K	2.31
F8W	3.88
F8V	2.4
F8R	1.45
F8G	1.07
F8N	2.05
F8H	1
F8L	3.07
F8Y	2.89
I7M	1.22
I7T	2.49
I7Y	3.48

Variant	protein stability index
I7N	1.09
I7G	3.26
I7C	2.28
I7R	1.94
C12E	1.52
C12R	3.5
C12F	2.77
C12K	1.79
C12M	2.97
C12I	2.54
R9D	2.96
R9P	1.77
R9T	1.99
R9S	3.12
R9Q	3.69
R9H	2.19
R9E	4.78
R9A	2.82
R9F	2.13
V5R	4.06
V5K	1.93
V5W	2.47
V5N	1.84
V5T	3.3
V5Y	2.28

Variant	protein stability index
V5S	2.17
C10R	2
C10K	2.63
C10H	4.15
C10M	3.4
C10S	2.89
C10T	1.93
C10V	2.69
C10P	4.46
P13L	1
P13K	2.83
P13I	3.13
P13N	1.5
P13Y	1.72
P13A	2.36
T1H	3.11
T1G	1.75
T1R	3.09
T1K	2.66
T1L	1.68
T1D	4.17
T1Q	3.46
T1P	1.67
T1I	1.4
T1Y	2.93

Variant	protein stability index
T1M	1.98
V2Q	2.08
V2Y	3.92
V2E	1.04
V2K	1.73
V2N	1.76
V2M	2.05
V2W	2.7
V2R	3.97
V2C	2.57
V2A	1.77
F15C	1.76
F11N	2.04
F11R	1.38
F11G	2.22
F11Q	1.64
F11H	2.82
F11C	2.65
F11K	2.82
V14G	3.26
V14Y	1.89
V14R	2.5
V14Q	3.31
V14K	2.41
V14A	2.13

Variant	protein stability index
V14L	4.01
V14F	2.97
H3G	3.96
H3N	3.08
H3L	2.85
H3F	2.37
H3D	2.26
H3W	3.13
H3Y	3.37
H3P	3.24
H3K	2.14
H3T	1.85
H3E	1.82
E4I	3.19
E4Q	1.79
E4C	1.53
E4H	3.03
E4T	3.43
E4P	3.77
E4Y	3.35
E4K	3.86
E4D	1.46
E4S	4.26
E4R	3.14
